Several values for one entry are separate records, joined by “and”; a condition that tells them apart may be missing. Identical values can stand only once. Like-named read-outs stand apart in the source and are kept apart here.
Experiments:
[1] = type: physicochemical
Description: To explore the impact of the PNP ligand on the lipophilicity of the complexes, Log Ps in a mixture of n-octanol and PBS were determined. The lipophilicity decreased in the order ^99mTc1 > ^99mTc2 > ^99mTc3. The lipophilic character of each compound correlated well with the corresponding HPLC retention time and protein binding behavior.
Determination of log P values. n-Octanol/PBS partition coefficients were determined by vortex mixing (20 min) 3.0 mL of n-octanol, 3.0 mL of PBS and 100 µL of the radiolabeled compound purified as above. After centrifugation (3000 g for 10 min), aliquots (100 µL) of both the organic and the aqueous phases were collected and counted with a γ-counter.

[2] = system: human melanoma M21 (αvβ3 positive) cells; test: Cell uptake and internalization in M21 cells; type: cell-based; conditions: for cell uptake (sum of surface bound and internalized radioactivity), blocked: M21 blocked by an excess of cold cRGDfK; for cell uptake (sum of surface bound and internalized radioactivity), blocked / cell uptake (sum of surface bound and internalized radioactivity): 37 °C, 90 min; for cell uptake (sum of surface bound and internalized radioactivity): M21 unblocked; for specific/nonspecific ratio, internalized radioactivity only: melanoma cell lines
Description: Cell uptake and internalization studies were performed on receptor-positive human melanoma M21 (expressing high levels of αvβ3 integrin and moderate level of integrin αvβ5), human breast cancer MCF7 (exclusively expressing αvβ5), and receptor-negative human melanoma M21L cell lines. The expression of αvβ3 and αvβ5 by cells was already evaluated by flow cytometry (Table 2). The stability of each radiolabeled peptide in the culture media before and after cell exposure was assessed.
Experiments were conducted in suspension at 37 °C. The working conditions were set up to avoid cell damage and/or death. With the use of these information, the cells were pre-incubated in sterile glass tubes at 37 °C for 10 min, in the presence or not of cRGDfK pentapeptide (50 µL; 1.65 mM).
Then, 1 mL of the cell suspension (1 × 10^6 cells/mL) was incubated with intermittent agitation with 10 µL (10 µCi) of ^99mTc1–3. At 90 min, the cells were moved in Eppendorf microcentrifuge tubes (1.5 mL) and the incubation was interrupted by centrifugation (3000 rpm for 5 min at 10 °C). The supernatant (S1) was separated from the pellet. The cell pellet was treated 10 min at room temperature with saline acetate buffer (CH3COOH 0.2M/NaCl 0.5 M) to remove the membrane-bound compound. After centrifugation (3000 rpm for 10 min at 10 °C), the supernatant (S2) was separated from the pellet (P1), and each fraction was collected, placed in a separated counting tube, and the activity was measured using a NaI counter (Cobra II, Packard) to estimate both the cell uptake and the internalized fraction.
The uptake of complexes was expressed as percentage cell uptake of the total activity on 10^6 cells (% cell uptake/10^6 cells).
All assessments were conducted in triplicate for three experiments.

[3] = set-up: species or system Sprague Dawley rats; conditions: rat, in vivo, iv, 15 uCi/100 uL
Description: Pharmacokinetics and metabolism.
Female Sprague Dawley rats weighing 180–200 g were anesthetized with an intraperitoneal injection of a mixture of Zoletil (40 mg/kg) and xylazine (2 mg/kg). A jugular vein was surgically exposed, and the solution containing the radiolabeled peptide was injected (15 µCi/100 µL). The rats (n = 3) were scarified by cervical dislocation at different times after injection. The blood was withdrawn from the heart with a syringe immediately after death and quantified. Organs were excised, rinsed in saline, weighed, and the activity was counted in a NaI counter. The results were expressed as the percentage of injected activity per gram of tissue (%IA/g) to be able to compare our results with those reported in the literature.

[4] = system: M21 (αvβ3-positive) and M21L (αvβ3-negative) melanoma tumors; type: in vivo, NSG mice; conditions: 120 min p.i.; for M21L tumor uptake: integrin-negative M21L control tumor; for M21 tumor uptake: integrin-positive M21 xenograft; for Blood / Heart / Intestine / Kidneys / Liver / Lungs / Muscle / Spleen / Stomach: tumor-bearing mice
Description: In vivo tumor uptake. The in vivo integrin targeting properties of the [^99mTcN(PNP)]-labeled peptide were evaluated in M21 (integrin-positive) and M21L (integrin-negative) melanoma-bearing mice by comparing the percentage of tumor uptake of the three compounds in tumors and the respective target-to-non-target ratios. Biodistribution data outlined some differences in organ uptake compared with those attained in rats at the same injection time because the rate of metabolism is different in each animal species. […] The high renal uptake of radiotracers is partially due to their rate of excretion as well as to a specific uptake by integrins expression in the kidneys; for ^99mTc3, the M21-to-kidney ratio was 1.37.
Human melanoma M21(αvβ3-positive) were injected subcutaneously (s.c. 1 × 10^6 cells) in the right flank of six week-old male NSG mice (Charles River Laboratories). As a negative control, M21L (αvβ3-negative) were inoculated s.c. (1 × 10^6 cells) in the left flank of the same mice. Fifteen days after the inoculation, when the tumors are palpable (5–3 mm), the mice were injected in the tail vein with the selected radiolabeled peptide (20 µCi/100 µL of PBS). A group of six animals was sacrificed at 120 min p.i. by CO2 inhalation. A sample of blood was collected and tumors and normal tissues of interest were dissected, rinsed to remove the excess of blood, weighted, and their radioactivity measured using a NaI counter. Results are expressed as the percentage of injected activity per gram (% IA/g) and tumor-to-organ ratios were calculated.

Substance: [Tc(N)(H2NS-cRGDfK)(PNP3OH)]^+ [^99mTc3]
- Log P [1]: −2.39
- cell uptake (sum of surface bound and internalized radioactivity), blocked [2]: 1.41 ± 0.25 % cell uptake/10^6 cells
- cell uptake (sum of surface bound and internalized radioactivity) [2]: 2.60 ± 0.36 % cell uptake/10^6 cells
- specific/nonspecific ratio, internalized radioactivity only [2]: 4.29
- Blood ([3]; 0.5 h): 0.46 ± 0.07 %IA/g
- Heart ([3]; 0.5 h): 0.25 ± 0.06 %IA/g
- Intestine ([3]; 0.5 h): 1.29 ± 0.13 %IA/g
- Kidneys ([3]; 0.5 h): 5.22 ± 0.44 %IA/g
- Liver ([3]; 0.5 h): 0.90 ± 0.09 %IA/g
- Lungs ([3]; 0.5 h): 0.62 ± 0.08 %IA/g
- Muscle ([3]; 0.5 h): 0.17 ± 0.01 %IA/g
- Spleen ([3]; 0.5 h): 0.43 ± 0.05 %IA/g
- Stomach ([3]; 0.5 h): 0.72 ± 0.04 %IA
- Urine ([3]; 0.5 h): 27.8 ± 5.6 %IA
- Blood ([3]; 1 h): 0.25 ± 0.03 %IA/g
- Heart ([3]; 1 h): 0.15 ± 0.00 %IA/g
- Intestine ([3]; 1 h): 1.95 ± 0.17 %IA/g
- Kidneys ([3]; 1 h): 4.83 ± 0.35 %IA/g
- Liver ([3]; 1 h): 0.80 ± 0.06 %IA/g
- Lungs ([3]; 1 h): 0.49 ± 0.01 %IA/g
- Muscle ([3]; 1 h): 0.13 ± 0.01 %IA/g
- Spleen ([3]; 1 h): 0.39 ± 0.04 %IA/g
- Stomach ([3]; 1 h): 0.64 ± 0.08 %IA
- Urine ([3]; 1 h): 31.2 ± 3.0 %IA
- Blood ([3]; 2 h): 0.16 ± 0.01 %IA/g
- Heart ([3]; 2 h): 0.13 ± 0.02 %IA/g
- Intestine ([3]; 2 h): 3.76 ± 0.27 %IA/g
- Kidneys ([3]; 2 h): 4.44 ± 0.32 %IA/g
- Liver ([3]; 2 h): 0.75 ± 0.09 %IA/g
- Lungs ([3]; 2 h): 0.37 ± 0.06 %IA/g
- Muscle ([3]; 2 h): 0.12 ± 0.00 %IA/g
- Spleen ([3]; 2 h): 0.36 ± 0.02 %IA/g
- Stomach ([3]; 2 h): 0.57 ± 0.03 %IA
- Urine ([3]; 2 h): 44.2 ± 10.9 %IA
- Blood ([3]; 4 h): 0.09 ± 0.01 %IA/g
- Heart ([3]; 4 h): 0.12 ± 0.03 %IA/g
- Intestine ([3]; 4 h): 4.17 ± 0.59 %IA/g
- Kidneys ([3]; 4 h): 4.22 ± 0.45 %IA/g
- Liver ([3]; 4 h): 0.67 ± 0.04 %IA/g
- Lungs ([3]; 4 h): 0.32 ± 0.02 %IA/g
- Muscle ([3]; 4 h): 0.08 ± 0.00 %IA/g
- Spleen ([3]; 4 h): 0.34 ± 0.04 %IA/g
- Stomach ([3]; 4 h): 0.46 ± 0.04 %IA
- Urine ([3]; 4 h): 30.2 ± 9.45 %IA
- M21/M21L ratio [4]: 5.60
- M21/blood ratio [4]: 73.42
- M21/kidneys ratio [4]: 1.23
- M21/liver ratio [4]: 1.11
- M21/lung ratio [4]: 2.98
- M21/muscle ratio [4]: 16.72
- M21L tumor uptake [4]: 0.70 ± 0.16 %IA/g
- M21 tumor uptake [4]: 3.9 ± 0.7 %IA/g and 3.92 ± 0.69 %IA/g
- Blood [4]: 0.05 ± 0.01 %IA/g
- Heart [4]: 0.44 ± 0.09 %IA/g
- Intestine [4]: 3.09 ± 0.62 %IA/g
- Kidneys [4]: 3.34 ± 0.18 %IA/g
- Liver [4]: 3.22 ± 0.24 %IA/g
- Lungs [4]: 1.32 ± 0.20 %IA/g
- Muscle [4]: 0.23 ± 0.03 %IA/g
- Spleen [4]: 1.43 ± 0.19 %IA/g
- Stomach [4]: 1.05 ± 0.14 %IA

Substance: [Tc(N)(H2NS-cRGDfK)(PNP43)]^+ [^99mTc2]
- Log P [1]: −1.95
- cell uptake (sum of surface bound and internalized radioactivity), blocked [2]: 1.48 ± 0.12 % cell uptake/10^6 cells
- cell uptake (sum of surface bound and internalized radioactivity) [2]: 2.57 ± 0.42 % cell uptake/10^6 cells
- specific/nonspecific ratio, internalized radioactivity only [2]: 3.28
- Blood ([3]; 0.5 h): 0.65 ± 0.04 %IA/g
- Heart ([3]; 0.5 h): 0.30 ± 0.01 %IA/g
- Intestine ([3]; 0.5 h): 1.19 ± 0.14 %IA/g
- Kidneys ([3]; 0.5 h): 6.77 ± 0.86 %IA/g
- Liver ([3]; 0.5 h): 0.90 ± 0.13 %IA/g
- Lungs ([3]; 0.5 h): 0.82 ± 0.09 %IA/g
- Muscle ([3]; 0.5 h): 0.22 ± 0.03 %IA/g
- Spleen ([3]; 0.5 h): 0.47 ± 0.02 %IA/g
- Stomach ([3]; 0.5 h): 0.82 ± 0.07 %IA
- Urine ([3]; 0.5 h): 17.7 ± 3.6 %IA
- Blood ([3]; 1 h): 0.35 ± 0.07 %IA/g
- Heart ([3]; 1 h): 0.20 ± 0.04 %IA/g
- Intestine ([3]; 1 h): 1.69 ± 0.17 %IA/g
- Kidneys ([3]; 1 h): 6.20 ± 0.68 %IA/g
- Liver ([3]; 1 h): 0.73 ± 0.01 %IA/g
- Lungs ([3]; 1 h): 0.56 ± 0.10 %IA/g
- Muscle ([3]; 1 h): 0.14 ± 0.03 %IA/g
- Spleen ([3]; 1 h): 0.40 ± 0.05 %IA/g
- Stomach ([3]; 1 h): 0.64 ± 0.08 %IA
- Urine ([3]; 1 h): 28.5 ± 4.6 %IA
- Blood ([3]; 2 h): 0.19 ± 0.04 %IA/g
- Heart ([3]; 2 h): 0.15 ± 0.06 %IA/g
- Intestine ([3]; 2 h): 1.94 ± 0.25 %IA/g
- Kidneys ([3]; 2 h): 5.51 ± 0.42 %IA/g
- Liver ([3]; 2 h): 0.57 ± 0.03 %IA/g
- Lungs ([3]; 2 h): 0.42 ± 0.02 %IA/g
- Muscle ([3]; 2 h): 0.12 ± 0.01 %IA/g
- Spleen ([3]; 2 h): 0.38 ± 0.04 %IA/g
- Stomach ([3]; 2 h): 0.51 ± 0.08 %IA
- Urine ([3]; 2 h): 41.5 ± 4.5 %IA
- Blood ([3]; 4 h): 0.11 ± 0.02 %IA/g
- Heart ([3]; 4 h): 0.12 ± 0.01 %IA/g
- Intestine ([3]; 4 h): 1.90 ± 0.19 %IA/g
- Kidneys ([3]; 4 h): 4.27 ± 0.31 %IA/g
- Liver ([3]; 4 h): 0.52 ± 0.07 %IA/g
- Lungs ([3]; 4 h): 0.34 ± 0.04 %IA/g
- Muscle ([3]; 4 h): 0.09 ± 0.00 %IA/g
- Spleen ([3]; 4 h): 0.34 ± 0.07 %IA/g
- Stomach ([3]; 4 h): 0.41 ± 0.09 %IA
- Urine ([3]; 4 h): 43.5 ± 3.4 %IA
- M21/M21L ratio [4]: 2.57
- M21/blood ratio [4]: 11.26
- M21/kidneys ratio [4]: 0.32
- M21/liver ratio [4]: 0.44
- M21/lung ratio [4]: 1.04
- M21/muscle ratio [4]: 3.54
- M21L tumor uptake [4]: 0.42 ± 0.05 %IA/g
- M21 tumor uptake [4]: 1.1 ± 0.2 %IA/g and 1.08 ± 0.24 %IA/g
- Blood [4]: 0.12 ± 0.03 %IA/g
- Heart [4]: 0.48 ± 0.07 %IA/g
- Intestine [4]: 2.45 ± 0.29 %IA/g
- Kidneys [4]: 3.38 ± 0.36 %IA/g
- Liver [4]: 2.43 ± 0.23 %IA/g
- Lungs [4]: 1.04 ± 0.08 %IA/g
- Muscle [4]: 0.31 ± 0.05 %IA/g
- Spleen [4]: 1.26 ± 0.04 %IA/g
- Stomach [4]: 1.02 ± 0.16 %IA

From PMC9029856, “Impact of Different [Tc(N)PNP]-Scaffolds on the Biological Properties of the Small cRGDfK Peptide: Synthesis, In Vitro and In Vivo Evaluations” (Molecules, 2022)
